The target in assay [1] is human type II collagen (type II collagen alpha I chain) (human) (UniProt P02458). Briefly: ELISA, collagen coated on the plate, dilution series of the binder, detection via StrepTag, A 450-600 nm.
For assay [2] the target is unchanged. Briefly: SPR, Biacore 3000, Langmuir 1:1 model.
For assay [3] the target is unchanged. The assay is described as follows: ELISA (KD determination by ELISA, Example 5).

A value given as a limit tells only on which side of the number the result lay.

The record followed here is patent US20230416345A1, “NEW TYPE II COLLAGEN BINDING PROTEINS” (Navigo Proteins GmbH, priority 2020, published 2023).

B1: CID 212000 (SEQ ID NO: 39), dimer of SEQ ID NO: 2 with linker between the monomers (designed binder, not shown: small tags and cut ends)
chain: IAAKFDEAQSAADSEILHLPNLTEQQRHYFRRWLSDDPSVSTHILTQAQHLNDDQAPKGGGGSGGGGSGGGGSGGGGSIAAKFDEAQSAADSEILHLPNLTEQQRHYFRRWLSDDPSVSTHILTQAQHLNDDQAPKSAWSHPQFEK
Consider B1, for which the Kd in assay [1] was 6.38 nM; in assay [2], 180 nM.

B2: CID 211999 (SEQ ID NO: 38), dimer of SEQ ID NO: 2 (directly joint monomers) (designed binder, not shown: small tags and cut ends)
chain: IAAKFDEAQSAADSEILHLPNLTEQQRHYFRRWLSDDPSVSTHILTQAQHLNDDQAPKIAAKFDEAQSAADSEILHLPNLTEQQRHYFRRWLSDDPSVSTHILTQAQHLNDDQAPKSAWSHPQFEK
Regarding B2, the dissociation constant (Kd) in assay [1] amounted to 8.06 nM; in assay [2] it was 127 nM.

B3: CID 212001 (SEQ ID NO: 41), tetramer of SEQ ID NO: 2 (designed binder, not shown: small tags and cut ends)
chain: IAAKFDEAQSAADSEILHLPNLTEQQRHYFRRWLSDDPSVSTHILTQAQHLNDDQAPKIAAKFDEAQSAADSEILHLPNLTEQQRHYFRRWLSDDPSVSTHILTQAQHLNDDQAPKIAAKFDEAQSAADSEILHLPNLTEQQRHYFRRWLSDDPSVSTHILTQAQHLNDDQAPKIAAKFDEAQSAADSEILHLPNLTEQQRHYFRRWLSDDPSVSTHILTQAQHLNDDQAPKSAWSHPQFEK
Regarding B3, the figures for the Kd in assay [1] and in assay [2] were 0.3 nM and under 0.5 nM, respectively.

B4: 210987 (SEQ ID NO: 36) (designed binder, not shown: small tags and cut ends)
chain: IAAKFDEAQQAAFYEILHLPNLTEQQRNYFIQWLRDDPSVSLEVLGTAQRLNDSQAPKIAAKFDEAQQLAFYQILHLENLTEEQRNAFIQSLRDDPSVSLEVLGEAIKLNLSQAPK
Consider B4, for which the Kd in assay [3] worked out at 460 nM; in assay [2], 169 nM.
